Source: paper PMC11620640 (2024)
Read-outs that look alike come from different tables or passages of the source.

How the values were obtained:
[1] = target: T1, SARS-CoV-2 prototype (PT) spike receptor binding domain (RBD) (SARS-CoV-2, UniProt P0DTC2 319-541); assay: SPR
[2] = target: T1, SARS-CoV-2 prototype (PT) spike …; assay: SPR; remark: listed apart in the source

B1: raccoon dog ACE2 (rdACE2), peptidase domain (PD), wild type (receptor)
chain: QSTEDLVNTFLEKFNYEAEELSYQSSLASWNYNTNITDENLQKMNNAGAKWSAFYEEQSKLAKTYPLEEIQDSTVKRQLRALQHSGSSVLSADKNQRLNTILNSMSTIYSTGKACNPSNPQECLLLEPGLDDIMENSKDYNERLWAWEGWRSEVGKQLRPLYEEYVALKNEMARANNYEDYGDYWRGDYEEEWENGYNYSRNQLIDDVEHTFTQIMPLYQHLHAYVRTKLMDTYPSYISPTGCLPAHLLGDMWGRFWTNLYPLTVPFGQKPNIDVTNAMVNQSWDARKIFKEAEKFFVSVGLPNMTQGFWENSMLTEPSDSWKVVCHPTAWDLGRGDFRIKMCTKVTMDDFLTAHHEMGHIQYDMAYAAQPFLLRNGANEGFHEAVGEIMSLSAATPNHLKNIGLLPPSFFEDSETEINFLLKQALTIVGTLPFTYMLEKWRWMVFKGEIPKDQWMKTWWEMKRNIVGVVEPVPHDETYCDPASLFHVANDYSFIRYYTRTIYQFQFQEALCQIAKHEGPLHKCDISNSSEAGQKLLEMLKLGKSKPWTYALEIVVGAKNMDVRPLLNYFEPLFTWLKEQNRNSFVGWNTDWSPYADQS
Kd [1]: 70.7 nM | Kd [2]: 87.4 nM
